Legend:
purified protein [1] = substrate: O=C(O)c1ccc(O)cc1; assay: purified protein; settings: A-domain, 2.5 mM ATP, 5 mM MgCl2, 50 mM Tris-HCl pH 7.4, 1 mM DTT, 2 μM AstA, Sfp modification of T-domain essential
purified protein [2] = substrate: O=C(O)c1ccccc1; assay: purified protein; format: biochemical, Aspergillus oryzae; settings: A-domain, 2.5 mM ATP, 5 mM MgCl2, 50 mM Tris-HCl pH 7.4, 1 mM DTT, 2 μM AstA, Sfp modification of T-domain essential

B1: AstA (Aspergillus oryzae RIB40) (protein)
chain: MDLEPWGPLYRKQDQDGSLDNIAVVSGDIPSPHPKNEPSQTSTLHIPRDSDLDSDIPSVPTALIIAWGLTLSSLTGDEVVGFDLLPFRGDYQDLGARPYHFLLKFGYREWSREAATTGMDLGSASSEGLPQGMGNRPQIAPSRFRNVLIIKQCSDAPGDSGSLESPSLGNVDKDEPTDAFRADMFISIQCGIGRTGIDVHCSFDPAFWTSENIRMILLDLSRNFKEVMRCGRDDTPLTCLEGMSPKGLDCVLRRNIIPPPPKMEACVHHRFQARCRQNPSALAIDAWDGQLTYAELDSLSSQLASRLVSSITICPRGFMGVLMEKSAWVPVAILAVLKVGSAFVFLDGSQPLQRLKIICAETKSQLVLSSAHYREKANTLGPPVLLVEKNQSGLGQAKENDSCPSLLEDYPQPQSQPQDTLYAVFTSGSTGEPKGAMVDHGAFCTMCGPQMAARPTTNVSPRVFQFAPHAFTVSILDYLGTLLQGGCVCVPSEEELRNNMAGAIEGLSANIVTMTPSMARVLDPTQTPSLQLVLLAGEMMAQCDLDKWSQCVRLLSLYGQSENAAGSMISEKSIVPRAPNTFETLTPGFQCWIVSQDNPHRLMALGEVGELLLEGPALGQGYMNDPIQTEDKFICRSFCLEYAHSGSPQSYRLFKTGDLVRYTPAGEIELLGRKGAEVKLRGQRIDLTEIEHHLRCLFPSATRVVADVIIPSDDIDGLHPVLAAFVQVDSVSRTGQSAEATFASPRPEFRAEAKAVLSGLCQTIPSYMIPMTIIPTEAFPFTATGKLDRRSLRQYASAMSRSDLLKYVTDDRGPVVTAVTPVEIIIHDACVEALGVSSDKVGMLDSFPDLGGDSLAARRMVSICRTKGLELAVADILAHSSLTSLAEKCSAGGGGAKQISQGVEMLDPFSTAKEEFLSHLPSFLPNADMIADVFPVQGAQRRAARAIDTFIFRLSGPVDADRLRDACQVLQQAHLALRSIFVPFYGKFMQVVLRVPPLDFTRRLLPDGTDLVKWAESIGQADKTQRPPSEEFVVRFTLAETAGTPDYSIFMMRLSHAQYDAGCLARIISDLWAVYEQKQLVVKSDFAQYARRAVQQTHLLSMEAFWRDLLAGTTGLTPLPVTGISAEEERTIIVQQRVELKEPPPTGISMATVVRGAWSWVLHQQTGNTVVVFNEMLNGRDVVPLEDTEPVVGACHSIVPVCVHFPLPQSGRTPRELLSALQEQHLASLTFTTLDRDYLIQNCTEWTSHQSGFILAYQNFPEICDLVIGEDLSCQWASQVLDLAEPGEAWVTATPLPGALQISLRVSTAAMDEQEANAWISALGQTIIRFLDSPDSVL
notes: recombinant, expressed in Escherichia coli BL21, purified; 1338 aa gene product with A, T and C domains; tag details only in supplement
Work on B1 yielded a Km (purified protein [1]) of 3.8 µM, a kcat (purified protein [1]) of 0.0163 s⁻¹ and a Km (purified protein [2]) of 4.9 µM. The kcat (purified protein [2]) was 0.0222 s⁻¹.
